Here are results for three molecules from patent publication US20120258099A1.

For test [1], the target named is MBP-Tgat (aa 1-255) (UniProt O75962). Description: FRET mant-GTP nucleotide exchange kinetics; kobs against GST-TRIP peptide concentration (up to 100 µM), hyperbolic fit; RhoA 1 µM, Tgat 0.5 µM.
Test [2] has the same target. The test is described as follows: cell-based or functional assay.

Substitutions are numbered along the chain they refer to. Ends that are not written are not given here. GST = glutathione S-transferase tag encoded by vector pGEX-5X2

B1: GST-TRIPα (peptide, not shown: a dimerising Fc or GST)
chain: {GST}-AREGADGAICGYNLATLVMLGPSERVFCPLCEPCSSDIYELM
modifications: cysteine pairing not given here; also: fused to GST, GST carrier and linker letters not given here
What is called Ki is the dissociation constant of the complex between target and ligand, obtained from inhibition or displacement. High values mean weaker binding, low ones tighter binding. Regarding B1, the Ki with MBP-Tgat (aa 1-255) [1] amounted to 89 µM.

B2: GST-TRIPE32G (peptide, not shown: a dimerising Fc or GST; large carriers; small tags and cut ends)
peptide: AREGADGAICGYNLATLVMLGPSERVFCPLCGPCSSDIYELM
modifications: not fully specified (N-terminus); cysteine pairing not given here; also: fused to GST, GST carrier and linker letters not given here
The molecule B2 showed an efficiency at inhibiting the exchange activity of Tgat, against TRIPα in the test with MBP-Tgat (aa 1-255) [2] of 15 fold. The Ki with MBP-Tgat (aa 1-255) [1] turned out to be 7.4 µM.

B3: GST-TRIPT16M/L17S (peptide, not shown: a dimerising Fc or GST; large carriers; small tags and cut ends)
peptide: B2 peptide with T16M, L17S, G32E
modifications: not fully specified (N-terminus); cysteine pairing not given here; also: fused to GST, GST carrier and linker letters not given here
B3: the efficiency at inhibiting the exchange activity of Tgat, against TRIPα in the test with MBP-Tgat (aa 1-255) [2] was 15 fold. Further, the inhibitory constant (Ki) with MBP-Tgat (aa 1-255) [1] was 5.1 µM.
